How the values were obtained:
Format in all cases: biochemical, Pantoea dispersa SB1043
[1] = tested on: CC(=O)Oc1ccc([N+](=O)[O-])cc1; test: Enzyme kinetics of AlbD-M1 with p-nitrophenyl compounds; conditions: other: AlbD-M1, PBS pH 7.4, room temperature, O.D405, Lineweaver-Burk, means of triplicate
Procedure: (§1) Purification of AlbD and variants. The coding sequence of albD was amplified by PCR using forward primer 5′-[…]-3′ and reverse primer 5′-[…]-3′. The PCR product was digested by BamHI and EcoRI and fused in-frame to GST (glutathione S-transferase) gene in expression vector pGEX-2T (Pharmacia). E. coli DH5α containing the GST-AlbD fusion construct was grown in LB medium at 30° C. overnight. The cells were harvested by centrifuging at 5000 rpm for 10 minutes. The cells were resuspended in PBS buffer (pH7.4) and lysed by using a French Pressure Cell Press (Aim-Aminco) at 1100 psi. The lysate was centrifuged at 18000 rpm for 60 min at 4° C. The supernatant was loaded in the pre-equilibrated Gluthione Sepharose 4B affinity column and washed with PBS buffer (pH 7.4) to remove non-specifically bound proteins. […] The enzyme purity was determined using SDS-PAGE and stored at −80° C. in PBS buffer containing 50% glycerol. The AlbD variants were purified using the same method.
(§2) Kinetics analysis of wild type AlbD and its variants. Enzyme kinetics of AlbD and variants were determined using p-nitrophenyl compounds, the commonly used esterase substrates. The reaction was conducted in 165 μl PBS buffer (pH 7.4) containing enzyme (0.3-0.6 μM), and 3 mM p-nitrophenayl compounds at room temperature for 5 minutes and O.D405 was determined. For kinetics assay, we used the Kinetics program in the Athous spectrometer (Australia) to obtain slopes with different enzyme concentrations, and then calculated Km/Vmax and Kcat/Km by Lineweaver-Burk equation.

[2] = tested on: CCCC(=O)Oc1ccc([N+](=O)[O-])cc1; test: as above; conditions: other: AlbD-M1, PBS pH 7.4, room temperature, O.D405, Lineweaver-Burk, means of triplicate
Procedure: as §1, §2

[3] = tested on: CCCCC(=O)Oc1ccc([N+](=O)[O-])cc1; test: as above; conditions: other: AlbD-M1, PBS pH 7.4, room temperature, O.D405, Lineweaver-Burk, means of triplicate
Procedure: as §1, §2

[4] = tested on: CCCCCC(=O)Oc1ccc([N+](=O)[O-])cc1; test: as above; conditions: other: AlbD-M1, PBS pH 7.4, room temperature, O.D405, Lineweaver-Burk, means of triplicate
Procedure: as §1, §2

[5] = target: Pantoea dispersa AlbD variant AlbD-M1, Ser40Gly (A118G), FIG. 3 (Pantoea dispersa, UniProt O07822, S40G); test: as above; conditions: PBS pH 7.4, room temperature, O.D405, means of triplicate
Chain of Pantoea dispersa AlbD variant AlbD-M1, Ser40Gly (A118G), FIG. 3 (O07822 entry or part of it S40G): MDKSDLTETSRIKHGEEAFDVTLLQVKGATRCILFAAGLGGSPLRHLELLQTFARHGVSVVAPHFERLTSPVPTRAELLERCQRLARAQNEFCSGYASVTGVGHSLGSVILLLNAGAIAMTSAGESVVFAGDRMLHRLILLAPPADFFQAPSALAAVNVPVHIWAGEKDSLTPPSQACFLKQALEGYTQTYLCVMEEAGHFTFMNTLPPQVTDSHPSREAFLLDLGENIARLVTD
Procedure: as §1, §2

[6] = target: Pantoea dispersa AlbD (albicidin detoxifying enzyme, carboxyl esterase), wild type (Pantoea dispersa, UniProt O07822); test: Enzyme kinetics of wild type AlbD with p-nitrophenyl compounds; conditions: PBS pH 7.4, room temperature, O.D405, means of triplicate
Chain of Pantoea dispersa AlbD (albicidin detoxifying enzyme, carboxyl esterase), wild type (O07822 entry or part of it): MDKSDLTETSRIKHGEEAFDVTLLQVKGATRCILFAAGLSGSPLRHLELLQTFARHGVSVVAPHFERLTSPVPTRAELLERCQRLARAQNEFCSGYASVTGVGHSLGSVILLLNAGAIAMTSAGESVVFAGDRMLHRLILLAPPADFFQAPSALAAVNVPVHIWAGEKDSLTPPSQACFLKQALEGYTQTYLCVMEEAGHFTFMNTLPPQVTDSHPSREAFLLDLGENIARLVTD
Procedure: as §1, §2

[7] = target: Pantoea dispersa AlbD variant AlbD-M2, Glu25Arg (A74G)/Lys27Glu (A79G)/Ser40Gly (A118G) (Pantoea dispersa, UniProt O07822, K27E/Q25R/S40G); test: Enzyme kinetics of AlbD-M2 with p-nitrophenyl compounds; conditions: PBS pH 7.4, room temperature, O.D405, means of triplicate
Chain of Pantoea dispersa AlbD variant AlbD-M2, Glu25Arg (A74G)/Lys27Glu (A79G)/Ser40Gly (A118G) (O07822 entry or part of it Q25R/K27E/S40G): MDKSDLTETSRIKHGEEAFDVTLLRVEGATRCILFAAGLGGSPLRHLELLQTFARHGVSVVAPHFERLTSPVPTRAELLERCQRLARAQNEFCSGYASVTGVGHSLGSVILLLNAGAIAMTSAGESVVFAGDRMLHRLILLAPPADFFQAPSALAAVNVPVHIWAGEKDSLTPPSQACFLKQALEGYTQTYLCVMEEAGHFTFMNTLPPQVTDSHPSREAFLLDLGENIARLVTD
Procedure: as §1, §2

[8] = tested on: CC(=O)Oc1ccc([N+](=O)[O-])cc1; test: Enzyme kinetics of wild type AlbD with p-nitrophenyl compounds; conditions: other: wild type AlbD, PBS pH 7.4, room temperature, O.D405, Lineweaver-Burk, means of triplicate
Procedure: as §1, §2

[9] = tested on: CCCC(=O)Oc1ccc([N+](=O)[O-])cc1; test: as above; conditions: other: wild type AlbD, PBS pH 7.4, room temperature, O.D405, Lineweaver-Burk, means of triplicate
Procedure: as §1, §2

[10] = tested on: CCCCC(=O)Oc1ccc([N+](=O)[O-])cc1; test: as above; conditions: other: wild type AlbD, PBS pH 7.4, room temperature, O.D405, Lineweaver-Burk, means of triplicate
Procedure: as §1, §2

[11] = tested on: CCCCCC(=O)Oc1ccc([N+](=O)[O-])cc1; test: as above; conditions: other: wild type AlbD, PBS pH 7.4, room temperature, O.D405, Lineweaver-Burk, means of triplicate
Procedure: as §1, §2

[12] = tested on: CC(=O)Oc1ccc([N+](=O)[O-])cc1; test: Enzyme kinetics of AlbD-M2 with p-nitrophenyl compounds; conditions: other: AlbD-M2, PBS pH 7.4, room temperature, O.D405, Lineweaver-Burk, means of triplicate
Procedure: as §1, §2

[13] = tested on: CCCC(=O)Oc1ccc([N+](=O)[O-])cc1; test: as above; conditions: other: AlbD-M2, PBS pH 7.4, room temperature, O.D405, Lineweaver-Burk, means of triplicate
Procedure: as §1, §2

[14] = tested on: CCCCCC(=O)Oc1ccc([N+](=O)[O-])cc1; test: as above; conditions: other: AlbD-M2, PBS pH 7.4, room temperature, O.D405, Lineweaver-Burk, means of triplicate
Procedure: as §1, §2

Compound: Pantoea dispersa AlbD variant AlbD-M1, Ser40Gly (A118G), FIG. 3 (Pantoea dispersa; S40G)
- Km [1]: 94000 µM
- Km [2]: 11 µM
- Km [3]: 400 µM
- Km [4]: 250 µM

Compound: CCCCC(=O)Oc1ccc([N+](=O)[O-])cc1 [p-nitrophenyl velerate, p-nitrophenyl valerate]
- Kcat [5]: 8.8 × 10^−1 S^−1

Compound: CCC(=O)Oc1ccc([N+](=O)[O-])cc1 [p-nitrophenol propionate, p-nitrophenyl propionate]
- Kcat [6]: 8.3 × 10^−2 S^−1
- Kcat [5]: 2.7 × 10^−1 S^−1
- Kcat [7]: 1.0 × 10^−1 S^−1

Compound: CC(=O)Oc1ccc([N+](=O)[O-])cc1 [p-nitrophenol acetate, p-nitrophenyl acetate]
- Kcat [6]: 3.8 × 10^−3 S^−1
- Kcat [5]: 9.1 × 10^−2 S^−1
- Kcat [7]: 1.5 × 10^−2 S^−1

Compound: CCCC(=O)Oc1ccc([N+](=O)[O-])cc1 [p-nitrophenyl butyrate]
- Kcat [5]: 2.5 × 10^−1 S^−1
- Kcat [7]: 2.8 × 10^−2 S^−1

Compound: Pantoea dispersa AlbD (albicidin detoxifying enzyme, carboxyl esterase), wild type (Pantoea dispersa)
- Km [8]: 68000 µM
- Km [9]: 190 µM
- kcat [9]: 0.1 s⁻¹
- kcat/Km [9]: 526 M⁻¹ s⁻¹
- Km [10]: 1700 µM
- kcat [10]: 0.28 s⁻¹
- kcat/Km [10]: 165 M⁻¹ s⁻¹
- Km [11]: 2500 µM
- kcat [11]: 0.11 s⁻¹
- kcat/Km [11]: 55.6 M⁻¹ s⁻¹

Compound: CCCCCC(=O)Oc1ccc([N+](=O)[O-])cc1 [p-nitrophenyl caproate]
- Kcat [5]: 4.2 × 10^−1 S^−1
- Kcat [7]: 1.3 × 10^−1 S^−1

Compound: Pantoea dispersa AlbD variant AlbD-M2, Glu25Arg (A74G)/Lys27Glu (A79G)/Ser40Gly (A118G) (Pantoea dispersa; K27E/Q25R/S40G)
- Km [12]: 13000 µM
- Km [13]: 23 µM
- Km [14]: 66000 µM
